# Variants at the floor of the assay were thinned out.
# B1: TPR 5TU (parent)
# chain: GGAUCUUCUCGAUCUAACAAAAAAGACAAAUCUGCCACAAAGCUUGAGAGCAUCUUCGGAUGCAGAGGCGGCAGCCUUCGGUGGCGCGAUAGCGCCAACGUUCUCAACUAUGACACGCAAAACGCGUGCUCCGUUGAAUGGAGUUUAUCAUG
# Variants of: B1
# Test: polymerase ribozyme fitness, log enrichment relative to wild type (log ratio); higher = more active; in vitro selection for triplet polymerase activity
# Outline: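 A single round of triplicate in vitro selection, including frozen incubation at −7 °C, was applied to PCR-built, transcribed mutant libraries of each subunit of a heterodimeric triplet polymerase ribozyme. Illumina sequencing of input and output libraries retained genotypes with ≥10 input reads and ≥1 read per output. Fitness is the base-2 logarithm of genotype enrichment divided by wild-type enrichment, from inverse-variance-weighted replicate averages.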
row,Variant,polymerase ribozyme fitness (log ratio)
1,A17U C87U C96U U104C A107U G141U,≤ -4.2
2,A17U G81A G84A,-0.321
3,A17U C87U G94C,-3.01
4,C18U U33A A39U A52C C72U G94A C95U C132U,≤ -4.2
5,C18A A21U A52G C54U G92A C103A,≤ -4.2
6,C18U A40C A52G G86U U90C U135G,≤ -4.2
7,C18G C76G C85A U145A,≤ -4.2
8,A17U A40C G58C C76U G84U U144G,-0.372
9,A17U C87U C125U,-1.39
10,C18G G83C C85U C96G A115C C116G U134A,≤ -4.2
11,A17U A39C A60C G86C C87A,≤ -4.2
12,C18G C35U C75U C95U A120G U134C,-2.68
13,C18A A22C A23U A37C C72U G88A C125U U146G,≤ -4.2
14,A17U A52C A64C G133A A138C,≤ -4.2
15,A17U U53C G92A C129G,≤ -4.2
16,C18G G80C,≤ -4.2
17,A17U C36G U61A C76G C103U A119U G141C,≤ -4.2
18,A17U U44A C54G U55G G62C C87A C99U A150G G152C,≤ -4.2
19,C18G C57U,-0.371
20,A17U A22U C51U U55A C75A C85U U101A C114U A115G G124A,≤ -4.2
21,C18G A19U A23C G67C G126A G143U U144C,≤ -4.2

row,Variant,polymerase ribozyme fitness (log ratio)
1,A17U A98G,-0.0344
2,A17U G42A G81C G86U G92C G143C,≤ -4.2
3,C18U G83C,-1.3
4,C18U G83A,-0.637
5,C18U A20U C103A G124A,-3.82
6,C18G A20C G34U U55G C118U C123U,-4.18
7,A17U A29C C43G G86A U135C,-4.06
8,C18G A20U G84U,-3.75
9,A17U A21G A22C C38U A66U U82C G100A C125U,≤ -4.2
10,A17U A26C G62U U78G G100A G152U,≤ -4.2
11,C18U U55G C75U G92C,-1.73
12,C18G A52C C93G,≤ -4.2
13,C18U A21C G141A,0.0565
14,A17U G48C G50U C76A C93A,≤ -4.2
15,C18U A41G C85A U134A,-3.02
16,A17U G42U C99A C105U A120U,≤ -4.2
17,A17U G50C G68C C85G G94A A106U C123U U134A U135A,≤ -4.2
18,C18U C96G U127C G143A,-4.17
19,C18U U53A C54U U56A G70A C85U C116U G141C,≤ -4.2
20,C18U U55A C93A G128A G136A,≤ -4.2
21,C18G U56G C85U,-0.856

row,Variant,polymerase ribozyme fitness (log ratio)
1,C18G C32U C43U A89C,≤ -4.2
2,C18G A24U C76A C95U G141A,-3.98
3,C18U G58C G86A U104C,-1.79
4,C18U C131A,-2.6
5,C18G A21G C93U C149A,≤ -4.2
6,C18G A23C A29G C51U C72G G81A G140U,≤ -4.2
7,C18G A26C C54A G62A C76G C87A A97C A150U,≤ -4.2
8,A17U U56G C125G,-1.81
9,C18U U31G A41G U56A C63U C95U C96G U144C,-2.53
10,C18U C93U C99U A150G,-2.85
11,C18U A37G U56A C87G C103U,≤ -4.2
12,A17U G100U U134A U145G,≤ -4.2
13,C18U C51U U53A G83A,-3.04
14,A17U G25C,-4.13
15,A17U C79U C85U A97U,≤ -4.2
16,C18G U61A,-0.567
17,A17U G59C G86C A113U,≤ -4.2
18,C18U G65A,-1.77
19,C18G A19U G42C G50C U90G G92U,≤ -4.2
20,C18U A20U G59A G94A C116G A142G A150G,≤ -4.2
21,C18G U44G U55G G58C C93A,≤ -4.2

row,Variant,polymerase ribozyme fitness (log ratio)
1,C18U C27U A28C G74U G100U U144G G152C,≤ -4.2
2,A17U A26U U45A A64G C85G A138G G143U,≤ -4.2
3,C18G A37G A66G G68C C93A G128A,≤ -4.2
4,C18G C54U U56A A73G A91G,-3.27
5,C18A A19C C35A,-2.88
6,C18G A60C G84U C125U,-3.76
7,C18G A37C C96G A106G,-1.07
8,C18G C95U,0.206
9,A17U A49G C85U C116A,-0.0919
10,A17U A22U U90G C125A U139C,≤ -4.2
11,A17U C57G C69A,-2.58
12,C18G U44A C96G G133A A137U,-4.04
13,C18U U53A G74C A107U U135C G140C,≤ -4.2
14,A17U A49U C85A A97U,≤ -4.2
15,C18U A29U G68A C85U,≤ -4.2
16,A17U C114U,-1.91
17,A17U G58C C95U C99A,-1.96
18,A17U A28U C38U,≤ -4.2
19,C18G C32G A66U A89G C95G A107U,≤ -4.2
20,C18U A60G C76U C103G G112U,≤ -4.2
21,A17U A20U G50C,≤ -4.2
